Assay results: the DeepSol protein solubility set

assay: soluble on expression in E. coli; label from the status in PepcDB or PDB records

Soluble on expression in E. coli, not soluble:
MGSDKIHHHHHHMNLRRRGIVVSFHSNMVTVEDEETGERILCKLRGKFRLQNLKIYVGDRVEYTPDETGSGVIENVLHRKNLLTKPHVANVDQVILVVTVKMPETSTYIIDKFLVLAEKNELETVMVINKMDLYDEDDLRKVRELEEIYSGLYPIVKTSAKTGMGIEELKEYLKGKISTMAGLSGVGKSSLLNAINPGLKLRVSEVSEKLQRGRHTTTTAQLLKFDFGGYVVDTPGFANLEINDIEPEELKHYFKEFGDKQCFFSDCNHVDEPECGVKEAVENGEIAESRYENYVKMFYELLGRRKK, MGSDKIHHHHHHMLNIDGSKYIVNNNLKNYLDNIKKPWGILFYRVLWQQLDKIKTSKVLDFGSGFGITANHFASNNMVIAIEPNSELVEARIQENDYIQIVGDLKALKSQKDNYFDVILCHNVFEYAKEREEIFKEFLRILKPGGIISLVKHNHAGRIMQKVVFENNIDEAEKLLNGGIIEVLGFGKVSYYKLEDIKKWCKGFEVEIIKVLGIRTFWALQQDNKIKEDPIWQEKMFKIEMMVSNIDEYVNISFFNHIILKKALKNYALE, MGSDKIHHHHHHMSTTMQVIELNGPNRLSISQRQVPETPVDGVLLKTSAVSICSTDISHYHGNLLAEDYPVILGHEYSGIVVDVGPECPSSLQGQRLAYFGQTDFGGMAEYRALRPLFAGDLRSSPFKTGRFFKDDERAAAITLPDEISDSDAPLIEPITAVLRSILTHPPAVGNRVLVLGGGPCGAIAGAILQTLYATKSVAVLERNQARQEIARSQYANFVFGSAEELRESDDDAFDYVFDALPPLVNIEADSCPRRAAMRAAKPGSKYVLYGASQTLQQFDTWLLLAKGITLASAAFDVDHFPMYKTAFVMKTAKELLLRRIIDPGWMMTNHMSFWRPQEVIQFFAEYYTTPHLKTVIHFDQ, MAHHHHHHMERGKNPMEAELNRAPQEVSLSAFSLLFSEIVQYCLWKSKRGYRIEDSLHEMGLRVGYKLNEYLPYKNKTKRCVNIISILTFLSKHLWKYLFQHSSDLLKSQDSIYEYMLCDKNILLNRFISVPKDYGNINCASFAAGIVEGMLCSAEFQAEVTAHTVYEDEKNFNTTIFIKFYPEVVNRERGEK, SLDGILDHTMIRVEDLDASLEWYTTHLNYEEKGRWEAETFTNVYLGPEDAGDAAARLELTYNHDGRSYTMGDAWGHIAVRVPDVEAAYDELMQSGVEDYRPPAENPGYAFVTDPDGHEVEIVERDYGTKWSLDHTMLRVEDVNAALGYWIRTFEYEPTGRWEADSFANYFVSPQDAPAEAMDIELTYNYDGRSYTMGDAWGHVAVRCADLQSAWETLQEREAPDYRDPESCDNRYAFTKAPDGHEIEILPTEEG, MSLVIFIMKKRYICILPYSLSYGGVFIDCKEVIANYWNFRSSTYKNGINGFDEEERAVWKQIFENSLASGKRLKVLDVGTGTGFLALLFAEMGHEVSGIDLSEGMLEKARHNADNMGLEISLFHGDAENLPFEDCSFDLVVNKYLLWTLQEPASAVREWKRVLKPGGMIFAIDGNWFDPRPDRYIKRMLYGLAERFAKKNQYNLIFKKSYGPIRNSLPLYEKISPKNISFLFSETGLMNTEISPLLEVQKFQRNRHSFSRRIFENNSIFLISGQKNEGHHHHHH, IVMAETKETVIDEVVVTGTGAQKKVTVTGAVTTVDVSQLRTPTASITNALAGNVAGILARQTSGQPGSNISEFWIRGISTFGAGGSALVLVDGFERDMNEINVEDIQDFSVLKDASATAIYGSRGANGVVLITTKRGKEGK, MGSDKIHHHHHHMENILDKLGIELNEQTRLTNDSKFTFNCHSGLSCFNTCCSNLDIVLTPYDILRMKNRLGLTSVEFISEYTEPVIQKESKLPFLKLKLGDEGKCRFVAAEGCTVYGDRPAACRYYPLGFGIYKNEEAGDDFYFLIREDHCKGFEEEREWTVGEWRKNQGVDEYDDKNRVWMEVILNKKLYSPELEPDEKSLKMFFMASYDLDAFRDFVFESRFLDVFDIEEERLEMIKNDEAELMLFAHQWLLFALFKKPTMNLKQV, MESTAPNAPTEEAPEPTPFVFEFKNNHIKLIELHVYTDSMEILLIGNDGNRYEVEIQEYPGEACIEQISLNRVLVQKKECTSMYPSAPIAIVTLYSILRQPGVKVDCFYYRILNQYFVRDKNNKTEHAKWDERSASLTKMLKAMMRALMKKLEVEVFKIVYNGKEEEVMCLLPYFEPGYLRRICLFNPLYVSPTVIDNIITTEQWKQAKELNTMTGEPVAFPVESHAHFESLRIRIPELKQIDVILLVLKYLNQKTPKDNEIGVQNVSELFDFMWGSMGIPHENDPETIRYTWKSGTYNLYAEVTKNGVRFTSETRQA, MAHHHHHHMKNKSIRKERQSGETLEDNIEEINYCIKVIPKDKINSKGNGAIRLSNLDMNRSNNGNYYNQNNNVENINDFETECRNYIEDILKIDEYVKLPNSINNEQDKIKWKKAHSLRNRMKEYDLITRTRLYQSNSVNNKAKLNRERYIILNKIPRYREAFPSIMNNTSTDKIKEDIIRTYLKTHAAYFLSQNKKNSNLSLKNMGRNTYFSFRKKSDDRNNSLINYNKHMNDKSKSVEHNNCPNLKKKDRSYNLWKRITVDDIKNTHFTPTEKQYLKDYNIFLNDAFNNFKINQNNNKRQLNVKNQKNIPNYDMINNKIYGHIKNNANNNLYINNQKREDAYIINPSQNNIITSPNEEQYPYFNNYSYSDKNKNLSTYNTEGKRNIYTNDVKSNTNYQHSNNSNYSDESLNMFSNSSTSIYEKYNLKDKNFVLKRDRYALLGKIKNNKEIEVKLVLNKV

Soluble on expression in E. coli, soluble:
MGGNMEDVKMKCGLEIHVQIDTKSKLFCNCSTNYLDAEPNTNVCPVCLGLPGAKPLPPNKKAVEVAIMVAKMLGCKIVVDEDIYFQRKHYDYPDLPSGYQRTSTPIGVDGEFMGIGIHEVHLEEDPGQYNPSFGIVDYNRSGTPLIEIVTKPDIKSPEEAREFLKQLMTLFRYLGCLRGEGTMRADVNISIEYMGVQGNRVEVKNVNSIKGVYKVLKYELIRQKNIIKRGGEVKRETRAFLESQMITKAMRSKETAEDYRYIPDPDIQPIVISEKWVKEIEEKMPETPLAKKKRFVEEYGIDEEDAKVLVSDLDMAEMFEEVVKSLGVNKENVDLAVTWIRNELRRSLQYHKVDLYESGVKAEHIVELIKLIKEGVISQKIAKEIVDLLVINRGKKMPKELVEELGLTVIRDEDALVKAVEEAIKNNPKAVEDYLNGKKEALNFLMGQVMRLTRGRADPKRVIELLKERLDK, MVPQTETKAGAGFKAGVKDYRLTYYTPDYVVRDTDILAAFRMTPQPGVPPEECGAAVAAESSTGTWTTVWTDGLTSLDRYKGRCYDIEPVPGEDNQYIAYVAYPIDLFEEGSVTNMFTSIVGNVFGFKALRALRLEDLRIPPAYVKTFVGPPHGIQVERDKLNKYGRGLLGCTIKPKLGLSAKNYGRAVYECLRGGLDFTKDDENVNSQPFMRWRDRFLFVAEAIYKAQAETGEVKGHYLNATAGTCEEMMKRAVCAKELGVPIIMHDYLTGGFTANTSLAIYCRDNGLLLHIHRAMHAVIDRQRNHGIHFRVLAKALRMSGGDHLHSGTVVGKLEGEREVILGFVDLMRDDYVEKDRSRGIYFTQDWCSMPGVMPVASGGIHVWHMPALVEIFGDDACLQFGGGTLGHPWGNAPGAAANRVALEACTQARNEGRDLAREGGDVIRSACKWSPELAAACEVWKEIKFEFDTIDKL, SKHKQSSFTKSCYPRGTLSQAVDALYIKAAWLKATIPEDRIKNIRLLKKKTKKQFMKNCQFQEQLLSFFMEDVFGQLQLQGCKKIRFVEDFHSLRQKLSHCISCASSAREMKSITRMKRIFYRIGNKGIYKAISELDILLSWIKKLLESSQ, MILNPQQRTKLDSRRDDLFYAAPRFVTHVDDFFLARLTDLYRQYLQPQMRVLDLMSSWVSHLPPELSFQEVVGHGMNAAELARNPRLDRYFVQNLNEELALPLEDASFNAVLMAVSVQYLQYPEATFTEIARILKPQGVVIVSFSNRMFFEKAIQAWREGSEGDRVQLVQTYINSTPSLKVIATHLPRLWPWRGFTDPFYAVVGQKQAVLEHHHHHH, QPLPSAALRRCPPPARVGGRWVSAEKVNEGGSGGGGSQRLTRRARSTARVPAPGTMDAPRASAAKPPTGRKMKARAPPPPGKAATLHVHSDQKPPHDGALGSQQNLVRMKEALRASTMDVTVVLPSGLEKRSVLNGSHAMMDLLVELCLQNHLNPSHHALEIRSSETQQPLSFKPNTLIGTLNVHTVFLKEKVPEEKVKPGPPKVPEKSVRLVVNYLRTQKAVVRVSPEVPLQNILPVICAKCEVSPEHVVLLRDNIAGEELELSKSLNELGIKELYAWDNRRETFRKSSLGNDETDKEKKKFLGFFKVNKRSNSKGCLTTPNSPSMHSRSLTLGPSLSLGSISGVSVKSEMKKRRAPPPPGSGPPVQDKASEKVSLGSQIDLQKKKRRAPAPPPPQPPPPSPLIPNRTEDKEENRKSTMVSLPLGSGSHCSPDGAPQVLSEAEETVSVGSCFASEDTTEDSGVMSSPSDIVSLDSQQDSMKYKDKWATDQEDCSDQDLAGTPDLGPQKSPLWEKNGSENSHLRTEKAVTASNDEEDLLIAGEFRKTLAELDEDLEEMEDSYETDTSSLTSSIHGASNHCPQDAMIPHGDTDAIPVTFIGEVSDDPVDSGLFSNRNNNAGSFDSEGVASRRDSLAPLQAEHSQPHEKAREEVPALHPASHDVGKGIRVALSNISKDGNLMETAPRVTSFASNLHTDNLNAKVKDKVYGCADGERTQATERVNSQPVNEKDSNDKNAALAPTSWHQRGQNPGKSYRLKHGLTTYKIIPPKSEMRCYDRDVSLSTGAIKIDELGNLVSPHATGIRIISLSSSVPEAESQPIGKVREFWRCNSVEKHLGRPSESSARGPPSTPVPTQTQNPESRLQADPKPISPQQKSAHHEGRNPLGEGRNQPPTMGMGHVRVPAAHTTEVTFLKPQRRTSSQYVASAIAKRIGAPKVHADVVRPHGYAEKGYAGKAPVLAAPPVTVKDDRTSSPHSETQGWKDGAQWPCVTPPNNHGEDLAVGAPPRGEVIGPHRKLSTQDRPAAIHRSSCFSLVQSSQRDRVSVGQSCGFSGKQSTSSQEASSASEPRRAPDGTDPPPPHTSDTQACSRELVNGSVRAPGHGEPSHPPGGSGTESHILLEREEKPSVFSTDGNETDSIWPPSIFGPKKKFKPVVQRPVPKDTSLHSALMEAIHSAGGKDRLRKTAEHTGEGRPAKLSYTEAEGERSALLAAIRGHSGTCSLRKVASSASEELQSFRDAALSAQGSESPLLEDLGLLSPPAIPPPPPPPSQALSAPRTASRFSTGTLSNTADARQALMDAIRSGTGAARLRKVPLLV, MNQLLINKHEKFFNRCLIGLPSTAQSEDSNKLAIIYFCLHGLQLIQKFQFTNQELIYYRNFIINQFMIENNQIISFRSTHYFQKTNQKYDCPNLSSTLFALYNLLILKSPYHTIINRKKIMNFLCKCQVKDGINKGGFVPTLYYNEENGDYKQYGEPDLRVCYMALLIRHLMKYDDNNNNNNREDSNETDIDLISLQQFILDRININGGFSSTIMDESHLGFTFCAIASLKLLNYPLEKLKSTKEWLIHRQVDYPENLYPKDGNGDGNGNGDNYEYYRNIDIGGFNGRENKLSDTCYSWWCTGSLYNIDVNFIKLVDLNKAEDYLLNKTQNQLFGGFGRDPDSTPDPMHSYLALASLSLWNHEKFALQEINPILTITKESYQFFKEEIKY, MAVTWAVSDGRAGNARQAEALARALHPDTVHALHLQARAPWRWAAPRRLPGANSAFGPAFAAQLQQPPGLVIGCGRQAALATRLLRARGSVAVQILDPRLDRRQWDLVVVPEHDALRGENVLTLLGSLHPVDDAWLAAGRAAFPAVGALPGPRVALLIGGPTTQVPWTLQALAAQCNAVQAQVRAAGGSLLITASRRTPPEVVALLRTLQQGNPGLLWCDARDGANPYAGLLGWADAIVASADSVNLLSEACATPVPVVAACAEFARGRVGAYVQALQQRQRLCAADEVLATTAAMTPVRETERIAAQVRMRLGLLEHHHHHH
